Entries after “also recorded” stand apart in the source; their conditions may differ.
Target: CXCR4 (Homo sapiens, UniProt P61073)
Experiment: Competitive CXCR4 binding assay
Conditions: CHO cells stably transfected with CXCR4; 12G5 antibody competition

Chain of CXCR4 (P61073 whole entry): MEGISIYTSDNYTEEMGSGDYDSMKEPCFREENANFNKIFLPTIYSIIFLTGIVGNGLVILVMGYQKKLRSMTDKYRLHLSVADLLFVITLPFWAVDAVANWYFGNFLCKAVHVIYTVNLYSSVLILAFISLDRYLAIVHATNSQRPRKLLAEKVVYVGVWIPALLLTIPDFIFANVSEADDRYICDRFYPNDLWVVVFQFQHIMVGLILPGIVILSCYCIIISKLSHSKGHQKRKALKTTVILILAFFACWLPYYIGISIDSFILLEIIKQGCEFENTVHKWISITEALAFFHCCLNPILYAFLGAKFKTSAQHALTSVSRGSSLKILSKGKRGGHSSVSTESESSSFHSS

With SDF-1α1–8 (KPVSLSYR) [ligand 19] the “CXCR4 binding activity (in words)” value was “very low CXCR4 binding affinity; also recorded: No binding”.
